Experimental data reported in patent publication US20100267005A1.

Target: H6GY-titin I28 protein
Experiment: sedimentation equilibrium, 3 loading concentrations, ten fold molar excess of Ni2+; Ni(II)-mediated self-association (monomer-dimer)

Substance: H6GY-titin I28 protein
- Kd: 200 µM
